Data published in patent publication US9504755B2, “Multi-arm polymeric alkanoate conjugates” (Nektar Therapeutics, priority 2008, dated 2016).

Columns and labels:
[1] = Population pharmacokinetic modeling of terminal disposition rate constant, rats; assay type: in vivo; details: rat
Description: To further evaluate the sustained plasma docetaxel terminal half-life, a population pharmacokinetic approach was employed.
While determining the pharmacokinetics of docetaxel after administration of docetaxel or 4-ARM-PEG20K-BA-docetaxel, it was observed that reliable values for the terminal disposition rate constant λz could not be obtained for the majority of animals secondary to fluctuation of plasma docetaxel concentrations between adjacent sampling times and/or the occurrence of incomplete concentration-time profiles due to concentrations being near or at the lower limit of quantification (1 ng/mL). In addition, in Example 14, rats were sampled in groups of 15 using alternating, overlapping sparse sampling schemes across groups to encompass the total duration of sampling. All of these factors contributed to the occurrence of sparse data within a given animal's terminal concentration-time profile.
To further investigate and compare docetaxel terminal disposition patterns between docetaxel and 4-ARM-PEG20K-BA-docetaxel, population pharmacokinetic methods were applied to data from rats (Example 14) and dogs (Example 15 and in one additional study). This allowed estimation of population λz values and corresponding half-life values for each treatment group in the presence of incomplete data within individual animals. Specifically, data from all animals within a treatment group and all treatment groups were fit with a nonlinear mixed effect pharmacokinetic model using the program Monolix. Plasma docetaxel concentrations following docetaxel or 4-ARM-PEG20K-BA-docetaxel administration, and plasma 4-ARM-PEG20K-BA-docetaxel concentrations following 4-ARM-PEG20K-BA-docetaxel administration were fit with a model specifying zero-order input of the dose over a defined infusion period and biexponential disposition (Monolix PK Model 26). Docetaxel concentration-time data after 4-ARM-PEG20K-BA-docetaxel were fit with a model having first order input, to reflect metabolism of 4-ARM-PEG20K-BA-docetaxel to the active docetaxel metabolite, and biexponential disposition (Monolix PK Model 31). The parameter of interest for this investigation was the population terminal disposition rate constant, λz to supplement the results described above.

[2] = Pharmacokinetics after IV infusion in Beagle dogs; assay type: in vivo, dog
Experimental: The objective of the study was to assess the pharmacokinetics and excretion of docetaxel and 4-ARM-PEG20K-BA-docetaxel after intravenous infusion to dogs.
Pharmacokinetics were evaluated in male dogs (4 dogs/dose level) dosed with 0, 0.75, 2, or 4 mg/kg (0, 15, 40, and 80 mg/m^2/dose) of 4-ARM-PEG20K-BA-docetaxel or 0.75 mg/kg (15 mg/m^2) docetaxel. 4-ARM-PEG20K-BA-docetaxel and docetaxel were administered via a cephalic or saphenous vein disposable catheter as 60-min intravenous infusions at 4 mL/kg/hr. Seventeen blood samples were obtained by jugular venipuncture or Abbacoth IV catheter between 0 and 168 hr post-dose. Plasma concentrations of 4-ARM-PEG20K-BA-docetaxel and docetaxel were determined.

[3] = Plasma and tumor pharmacokinetics in H460 tumor-bearing nude mice; assay type: in vivo, mouse; details: for AUClast, analyte docetaxel, plasma / AUClast, analyte docetaxel, tumor / Tmax, analyte docetaxel, plasma / Tmax, analyte docetaxel, tumor / Cmax, analyte docetaxel, plasma / Cmax, analyte docetaxel, tumor: single IV; for AUClast, analyte docetaxel, plasma / AUClast, analyte docetaxel, tumor: 25 mg/kg docetaxel or 33 mg/kg conjugate (MTDs); for Tmax, analyte docetaxel, plasma / Tmax, analyte docetaxel, tumor / Cmax, analyte docetaxel, plasma / Cmax, analyte docetaxel, tumor: 25 mg/kg docetaxel or 33 mg/kg conjugate
Experimental: To assess whether the improved antitumor activity was due to greater plasma and tumor docetaxel exposure following 4-ARM-PEG20K-BA-DOC administration, plasma and tumor homogenates were analyzed after a single IV administration of 4-ARM-PEG20K-BA-DOC or docetaxel in mice bearing H460 tumors. In looking at each of 4-ARM-PEG20K-BA-DOC and docetaxel dosed at their respective maximum tolerated doses (MTDs) of 33 and 25 mg/kg, the following was observed. […] The maximum plasma docetaxel concentration with 4-ARM-PEG20K-BA-DOC was 13-fold lower than that with docetaxel.
The objective of this study was to compare docetaxel pharmacokinetics following 4-ARM-PEG20K-BA-docetaxel with that following docetaxel administration, in plasma and tumor tissue of athymic female mice bearing H460 NSCLC tumors and to determine the effects on complete blood counts. This example summarizes the pharmacokinetic results.
H460 tumor cells were grown in vitro and implanted subcutaneously into female HRLN nude mice. When tumor sizes reached between 172 and 288 mg, animals were dosed by intravenous bolus injection with 25 mg/kg docetaxel or 33 mg/kg 4-ARM-PEG20K-BA-docetaxel at a dosing volume of 10 mL/kg. These dose levels correspond to the maximum tolerated doses for docetaxel and 4-ARM-PEG20K-BA-docetaxel administered on a q7d×3 schedule in this tumor model. Blood and tumor samples (n=7 timepoints with n=3/timepoint) were collected from 0 to 7 days after IV injection. Plasma and tumor samples were analyzed for docetaxel and 4-ARM-PEG20K-BA-docetaxel.

[4] = docetaxel 5 mg/kg or conjugate 5, 10, 15 mg/kg
[5] = male dogs, average over 0.75, 2, 4 mg/kg
[6] = male dogs, single IV dose 0.75 mg/kg
[7] = male dogs, single IV dose 2 mg/kg
[8] = male dogs, single IV dose 4 mg/kg
[9] = 19 mg/kg conjugate (extrapolated) vs 25 mg/kg docetaxel
[10] = 33 mg/kg conjugate vs 25 mg/kg docetaxel
[11] = 33 mg/kg conjugate vs 25 mg/kg docetaxel, listed as Conjugate Lot 1
[12] = 33 mg/kg conjugate vs 25 mg/kg docetaxel, listed as Conjugate Lot 2
[13] = single IV 33 mg/kg conjugate, listed as Conjugate Lot 1, 33 mg/kg
[14] = single IV 33 mg/kg conjugate, listed as Conjugate Lot 2, 33 mg/kg
[15] = listed as 4-ARM-PEG20K-BA-docetaxel
[16] = female, HRLN nude, mouse, in vivo, iv, 25 mg/kg, analyte docetaxel, tumor

## 4-ARM-PEG20K-Butanoate-Linked Docetaxel Conjugate [4-ARM-PEG20K-BA-DOC]
[1]
  plasma docetaxel half-life, fold longer than after docetaxel: about 4 fold
[1]; [4]
  Mean (SE) λz, plasma docetaxel: 0.00412 (0.001) hr^−1
  t½λz, plasma docetaxel: 168 h
[2]; dogs, equivalent dose levels of 0.75 mg/kg
  plasma docetaxel AUC, fold lower than after docetaxel: ~7 fold
[2]; [5]
  CL, analyte conjugate, average (±SD): 0.13 mL/min/kg
  T1/2, analyte conjugate, average (±SD): 32 ± 4 h
  Vss, analyte conjugate, average (±SD): 0.26 ± 0.04 L/kg
[2]; male dogs, average over 0.75, 2, 4 mg/kg, listed as 4-ARM-PEG20K-BA-docetaxel
  T1/2, analyte conjugate, average (±SD): 31 h
[2]; [6]
  AUCinf, analyte conjugate: 104.247 µg·h/mL
  AUClast, analyte conjugate: 93.084 µg·h/mL
  AUClast, analyte docetaxel: 0.064 µg·h/mL
  CL, analyte conjugate: 0.12 mL/min/kg
  Cmax, analyte conjugate: 7084 ng/mL
  Cmax, analyte docetaxel: 2.1 ng/mL
  T1/2, analyte conjugate: 28 h
  Tmax, analyte conjugate: 1.1 h
  Tmax, analyte docetaxel: 0.88 h
  Vss, analyte conjugate: 0.23 L/kg
[2]; [7]
  AUCinf, analyte conjugate: 245.446 µg·h/mL
  AUClast, analyte conjugate: 232.378 µg·h/mL
  AUClast, analyte docetaxel: 0.153 µg·h/mL
  CL, analyte conjugate: 0.14 mL/min/kg
  Cmax, analyte conjugate: 17731 ng/mL
  Cmax, analyte docetaxel: 6.3 ng/mL
  T1/2, analyte conjugate: 35 h
  Tmax, analyte conjugate: 1.4 h
  Tmax, analyte docetaxel: 1.1 h
  Vss, analyte conjugate: 0.26 L/kg
[2]; [8]
  AUCinf, analyte conjugate: 611.47 µg·h/mL
  AUClast, analyte conjugate: 597.336 µg·h/mL
  AUClast, analyte docetaxel: 0.326 µg·h/mL
  CL, analyte conjugate: 0.12 mL/min/kg
  Cmax, analyte conjugate: 33570 ng/mL
  Cmax, analyte docetaxel: 19 ng/mL
  T1/2, analyte conjugate: 32 h
  Tmax, analyte conjugate: 6.8 h
  Tmax, analyte docetaxel: 12 h
  Vss, analyte conjugate: 0.31 L/kg
[3]; 19 mg/kg (58% MTD), extrapolated from the 33 mg/kg dose
  AUC, docetaxel in plasma: 3488^# hr*ng/mL
[3]; [9]
  4-ARM-PEG20K-BA-DOC to Docetaxel Ratio, plasma AUC: 0.6
  4-ARM-PEG20K-BA-DOC to Docetaxel Ratio, tumor AUC: 1.3
[3]; 33 mg/kg
  conjugate AUC, fold lower in tumor compared to plasma: approximately 2 fold
  conjugate Cmax, fold lower in tumor compared to plasma: 17 fold
[3]; [10]
  Conjugate to Docetaxel ratio, AUC, docetaxel in plasma: 1.0
  Conjugate to Docetaxel ratio, AUC, docetaxel in tumor: 2.3
  maximum plasma docetaxel concentration, fold lower than with docetaxel: 13 fold
  plasma docetaxel AUC compared with docetaxel treatment: similar
  tumor docetaxel AUC, fold greater than for docetaxel: 2 fold
[3]; 33 mg/kg conjugate vs 25 mg/kg docetaxel, listed as 4-ARM-PEG20K-BA-docetaxel
  maximum plasma docetaxel concentration, fold lower than with docetaxel: about 14 fold
[3]; [11]
  Conjugate to Docetaxel ratio, AUC, docetaxel in plasma: 1.0
  Conjugate to Docetaxel ratio, AUC, docetaxel in tumor: 2.3
  Conjugate to Docetaxel ratio, Cmax, docetaxel in plasma: 0.08
  Conjugate to Docetaxel ratio, Cmax, docetaxel in tumor: 1.3
[3]; [12]
  Conjugate to Docetaxel ratio, AUC, docetaxel in plasma: 0.9
  Conjugate to Docetaxel ratio, AUC, docetaxel in tumor: 2.7
  Conjugate to Docetaxel ratio, Cmax, docetaxel in plasma: 0.06
  Conjugate to Docetaxel ratio, Cmax, docetaxel in tumor: 2.0
[3]; by 168 hr post-dose, 33 mg/kg
  conjugate tumor to plasma ratio: about 7
[3]; for up to 168 hr after single IV 33 mg/kg conjugate
  plasma docetaxel concentration: above 5 ng/mL
[3]; from 24 hr post dose through the end of sampling
  tumor docetaxel concentrations, fold higher than after docetaxel: approximately 5 fold
[3]; single IV 33 mg/kg conjugate
  Tmax, analyte conjugate, plasma: 0.5 h
[3]; single IV 33 mg/kg conjugate, listed as 4-ARM-PEG20K-BA-docetaxel, 33 mg/kg
  Tmax, analyte conjugate, tumor: ≤ 4 h
[3]; [13]
  AUClast, analyte conjugate, plasma: 1097.606 µg·h/mL
  AUClast, analyte conjugate, tumor: 652.823 µg·h/mL
  Cmax, analyte conjugate, plasma: 128354 ng/mL
  Cmax, analyte conjugate, tumor: 7062 ng/mL
  Tmax, analyte conjugate, tumor: 4 h
[3]; [14]
  AUClast, analyte conjugate, plasma: 1852.51 µg·h/mL
  AUClast, analyte conjugate, tumor: 718.068 µg·h/mL
  Cmax, analyte conjugate, plasma: 118209 ng/mL
  Cmax, analyte conjugate, tumor: 7675 ng/mL
[3]
  AUClast, analyte docetaxel, plasma: 6.013 µg·h/mL
  AUClast, analyte docetaxel, tumor: 313,558 hr*ng/mL
[3]; listed as Conjugate Lot 1
  AUClast, analyte docetaxel, tumor: 313558 ng·h/mL
  Cmax, analyte docetaxel, plasma: 195 ng/mL
  Cmax, analyte docetaxel, tumor: 2931 ng/mL
  Tmax, analyte docetaxel, plasma: 12 h
  Tmax, analyte docetaxel, tumor: 12 h
[3]; listed as Conjugate Lot 2
  AUClast, analyte docetaxel, plasma: 5.57 µg·h/mL
  AUClast, analyte docetaxel, tumor: 380617 ng·h/mL
  Cmax, analyte docetaxel, plasma: 162 ng/mL
  Cmax, analyte docetaxel, tumor: 4623 ng/mL
[3]; [15]
  Tmax, analyte docetaxel, plasma: 0.5 h
  Tmax, analyte docetaxel, tumor: ≤ 12 h

## CC(=O)O[C@@]12CO[C@@H]1C[C@H](O)[C@@]1(C)C(=O)[C@H](O)C3=C(C)[C@@H](OC(=O)[C@H](O)[C@@H](NC(=O)OC(C)(C)C)c4ccccc4)C[C@@](O)([C@@H](OC(=O)c4ccccc4)[C@H]21)C3(C)C [Docetaxel, reference compound]
[1]; in vivo
  t½λz, plasma docetaxel: 40 h
[2]; Beagle, dog, plasma, male dogs, single IV dose 0.75 mg/kg, read-out: AUClast, analyte docetaxel
  AUC(0-t): 0.479 µg·h/mL
[2]; Beagle, dog, plasma, male dogs, single IV dose 0.75 mg/kg, read-out: Cmax, analyte docetaxel
  Cmax: 223 ng/mL
[2]; Beagle, dog, plasma, male dogs, single IV dose 0.75 mg/kg, read-out: Tmax, analyte docetaxel
  Tmax: 0.88 h
[3]; female, HRLN nude, mouse, in vivo, iv, 25 mg/kg
  concentration at 72 hr: < 1 ng/mL
[3]; female, HRLN nude, mouse, in vivo, iv, 25 mg/kg, AUClast, analyte docetaxel, tumor
  AUC(0-t): 139 µg·h/mL
[3]; female, HRLN nude, mouse, in vivo, iv, 25 mg/kg, analyte docetaxel, plasma
  Cmax: 2570 ng/mL
[3]; [16]
  Cmax: 2340 ng/mL
  Tmax: 4 h
[3]; female, HRLN nude, mouse, in vivo, iv, analyte docetaxel, plasma
  Tmax: 0.5 h
[3]; female, HRLN nude, mouse, in vivo, iv, analyte docetaxel, tumor
  Tmax: ≤ 4 h
